Publication PMC9732051, “Divergent self-association properties of paralogous proteins TRIM2 and TRIM3 regulate their E3 ligase activity” (Nature Communications, 2022)
Changes are numbered by the printed parent chain. Numbers in names are those of the source. One block for each binder: values may come before it.

Columns and labels:
[1] = molecular target: T1, 15N-labelled UBE2D3 (C85S) (UniProt P61077 1-147, mutation of the catalytic cysteine (C85) to serine); assay: NMR titration; 1H-15N HSQC of 200 µM 15N-UBE2D3 (C85S) titrated with unlabelled RING (0 to 2 molar equivalents); 298 K; 25 mM Na-phosphate pH 7.0, 150 mM NaCl; Kd from fits of chemical shift changes; settings: both partners purified
T1 construct: UBE2D3 with the catalytic cysteine (C85) mutated to serine; Uniformly 15N-enriched; source: bacteria grown in M9 minimal medium with 15N-ammonium chloride
T1 sequence (P61077 whole entry C85S): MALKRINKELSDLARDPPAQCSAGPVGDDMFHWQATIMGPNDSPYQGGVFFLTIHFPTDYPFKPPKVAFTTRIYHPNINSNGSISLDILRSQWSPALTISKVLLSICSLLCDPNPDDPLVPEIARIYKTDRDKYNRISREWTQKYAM

[2] = molecular target: the molecule itself; assay: SEC-MALLS; Superdex 75 or 200 10/300 GL Increase; 20 mM HEPES pH 7.5, 150 mM NaCl, 0.5 mM TCEP, 3 mM NaN3; 25 °C; 100 μl samples at multiple concentrations (5, 3, 2 and 1 mg/ml in Fig. 1b)
[3] = molecular target: 15N-labelled UBE2D3 (C85S) (UniProt P61077 1-147, mutation of the catalytic cysteine (C85) to serine); assay: NMR; residue K101
Target sequence in this assay (P61077 whole entry C85S): as above

Kd [1]: ~590 µM
Kd [3]: 643 µM
B1: human TRIM2 RING (2-95) (domain or fragment, UniProt Q9C040 2-95, looked up)
chain: ASEGTNIPSPVVRQIDKQFLICSICLERYKNPKVLPCLHTFCERCLQNYIPAHSLTLSCPVCRQTSILPEKGVAALQNNFFITNLMDVLQRTPG
notes: human TRIM2, RING construct, residues 2-95; likely on this pET49b construct too; also called T2R; RING1; source: E. coli BL21 (DE3), purified (Ni-NTA, His6 cleaved by HRV 3C, SEC); not shown: His6, N-terminal, cleaved
stoichiometry N [2]: 2

B2: chimera of the TRIM2 N- and C-terminal α-helices (2-16/84-95) and the TRIM3 core RING (16-82) (other, human, UniProt Q9C040 2-16, looked up)
chain: B1 chain with I21V, E27D, K30Q, N31C, H53Q, K71Q, A74S
notes: human TRIM2, N-terminal α-helix, residues 2-16; human TRIM3, core RING domain, residues 16-82; human TRIM2, C-terminal α-helix, residues 84-95; also called T2αs-T3Rcore; T2Rαs-T3Rcore; source: E. coli BL21 (DE3), purified (Ni-NTA, His6 cleaved by HRV 3C, SEC); not shown: His6, N-terminal, cleaved
binding result [2]: binds

B3: human TRIM3 tripartite motif RBCC (2-313) (domain or fragment, UniProt O75382 2-313, looked up)
chain: AKREDSPGPEVQPMDKQFLVCSICLDRYQCPKVLPCLHTFCERCLQNYIPAQSLTLSCPVCRQTSILPEQGVSALQNNFFISSLMEAMQQAPDGAHDPEDPHPLSVVAGRPLSCPNHEGKTMEFYCEACETAMCGECRAGEHREHGTVLLRDVVEQHKAALQRQLEAVRGRLPQLSAAIALVGGISQQLQERKAEALAQISAAFEDLEQALQQRKQALVSDLETICGAKQKVLQSQLDTLRQGQEHIGSSCSFAEQALRLGSAPEVLLVRKHMRERLAALAAQAFPERPHENAQLELVLEVDGLRRSVLNLG
notes: human TRIM3, RBCC construct, residues 2-313; also called TRIM3 RBCC; source: E. coli BL21 (DE3), purified (Ni-NTA, His6 cleaved by HRV 3C, SEC); not shown: His6, N-terminal, cleaved
stoichiometry N [2]: 2

B4: human TRIM2 tripartite motif RBCC (2-316) (domain or fragment, UniProt Q9C040 2-316, looked up)
chain: ASEGTNIPSPVVRQIDKQFLICSICLERYKNPKVLPCLHTFCERCLQNYIPAHSLTLSCPVCRQTSILPEKGVAALQNNFFITNLMDVLQRTPGSNAEESSILETVTAVAAGKPLSCPNHDGNVMEFYCQSCETAMCRECTEGEHAEHPTVPLKDVVEQHKASLQVQLDAVNKRLPEIDSALQFISEIIHQLTNQKASIVDDIHSTFDELQKTLNVRKSVLLMELEVNYGLKHKVLQSQLDTLLQGQESIKSCSNFTAQALNHGTETEVLLVKKQMSEKLNELADQDFPLHPRENDQLDFIVETEGLKKSIHNLG
notes: human TRIM2, RBCC construct, residues 2-316; also called TRIM2 RBCC; source: E. coli BL21 (DE3), purified (Ni-NTA, His6 cleaved by HRV 3C, SEC); not shown: His6, N-terminal, cleaved
stoichiometry N [2]: 4

Kd [1]: ~300 µM
B5: human TRIM3 RING (2-95) (domain or fragment)
chain: GPGAKREDSPGPEVQPMDKQFLVCSICLDRYQCPKVLPCLHTFCERCLQNYIPAQSLTLSCPVCRQTSILPEQGVSALQNNFFISSLMEAMQQAPDG
notes: tripeptide Gly-Pro-Gly left at the N-terminus by 3C protease cleavage; human TRIM3, RING construct, residues 2-95; also called T3R; source: E. coli BL21 (DE3), purified (Ni-NTA, His6 cleaved by HRV 3C, SEC); not shown: His6, N-terminal, cleaved

B6: human TRIM2 RING-B-box2 (2-156) (domain or fragment, UniProt Q9C040 2-156, looked up)
chain: ASEGTNIPSPVVRQIDKQFLICSICLERYKNPKVLPCLHTFCERCLQNYIPAHSLTLSCPVCRQTSILPEKGVAALQNNFFITNLMDVLQRTPGSNAEESSILETVTAVAAGKPLSCPNHDGNVMEFYCQSCETAMCRECTEGEHAEHPTVPLKD
notes: human TRIM2, RB2 construct, residues 2-156; also called TRIM2 RB2; source: E. coli BL21 (DE3), purified (Ni-NTA, His6 cleaved by HRV 3C, SEC); not shown: His6, N-terminal, cleaved
stoichiometry N [2]: 2
